According to US20160311886A1, “Constructs Binding to Phosphatidylserine and Their Use in Disease Treatment and Imaging” (Board of Regents, The University of Texas System, priority 2005, published 2016):

What was measured:
[1] = Reactivity of 9D2 and annexin V with plastic-immobilized phospholipids (panel); format: binding
Description: Phospholipids were dissolved in n-hexane to a concentration of 50 μg/ml. 100 μl of this solution was added to wells of 96-well microtiter plates. After evaporation of the solvent in air, the plates were blocked for 2 h with 10% fetal bovine serum diluted in DPBS containing 2 mM Ca^2+ (binding buffer).
9D2 antibody or annexin V were diluted in the binding buffer in the presence of 10% serum at an initial concentration of 6.7 nM. Serial two-fold dilutions were prepared in the plates (100 μl per well). The plates were then incubated for 2 h at room temperature. The plates were washed and the 9D2 and annexin V were detected by goat anti-rat IgM conjugated to HRP and rabbit anti-human annexin V followed by goat anti-rabbit IgG conjugated to HRP (all diluted 1:1000), respectively. Secondary reagents were detected by using chromogenic substrate OPD followed by reading plates at 490 nm using a microplate reader (Molecular Devices, Palo Alto, Calif.).
The specificity of the 9D2 antibody binding was validated by using control rat IgM of irrelevant specificity (Pharmingen, San Diego, Calif.). The specificity of annexin V binding to phospholipids, which is Ca^2+-dependent, was determined by diluting the reagent in the DPBS containing 5 mM EDTA. Additional negative controls consisted of washing the plates with the binding buffer containing 0.2% of a detergent Tween 20. This treatment extracts lipids, thus removing the phospholipid that was absorbed to plastic. Neither 9D2 antibody nor annexin V bound to detergent-washed plates.

[2] = system: drug-resistant breast tumors; experiment: 3G4 and cisplatin against drug-resistant breast tumors; format: in vivo, mouse; conditions: treated after day 20
Text: Mice were inoculated with drug-resistant breast tumors and treated after day 20.

[3] = system: orthotopic MDA-MB-231 tumors; experiment: 3G4 tumor treatment and histology; format: in vivo, mouse
Description: The general protocol for the animal tumor treatment studies is conducted as follows. Unless particular differences are specified, this is the protocol used throughout the studies of the present application.
For the syngeneic model, Meth A mouse fibrosarcoma tumor cells were used. In one xenogeneic model, human MDA-MB-231 breast tumor cells were seeded into the mammary fat pad. In another xenogeneic model, a large human Hodgkin's lymphoma L540 xenograft was established by injecting cells and allowing the tumor to grow to a size of over 500 mm^3 before treatment. […] Treatment was repeated 3 times a week. Animals were monitored twice a week for tumor measurements.
(§1) Groups of 8-10 female SCID mice were injected subcutaneously with 2×10^7 L540 cells or orthotopically with 1×10^7 MDA-MB-435 or MDA-MB-231 cells. BALB/c mice were injected subcutaneously with 1×10^6 Meth A cells. Tumors were allowed to grow to an average diameter of 0.8-1 cm (L540), 0.6-0.7 cm (MDA-MB-435), 0.5-0.7 cm (MDA-MB-231), or <0.1 cm (Meth A). […] Animals were monitored three times a week for tumor size and body weight. Mice were sacrificed when tumors in control mice reached a diameter of 1.5-2 cm.

[4] = system: Pichinde virus; format: cell-based
[5] = system: orthotopic MDA-MB-435 and MDA-MB-231 tumors; experiment: Macrophage infiltration during 3G4 tumor treatment; format: in vivo, mouse; conditions: 100 μg i.p. three times a week for 2-3 weeks
Description: as §1

[6] = Anti-PS ELISA in OVA or sera of different species; format: binding
Description: The assay was performed as follows (see also, Ran et al., 2005, specifically incorporated herein by reference). PS-coated Immunlon 1B microtiter plates were blocked overnight in 1% OVA (w/v). […] Dilutions were performed in 1% OVA or 10% non-heat inactivated sera from cow, human, rat or mouse. […] All ELISA studies were performed at least three times.

Molecule	binding to heparin, heparan sulfate or double or single stranded DNA [1]	order of strength of binding to phospholipids in ELISA [1]	effect of EDTA on binding to anionic phospholipids ([1]; 5 mM EDTA)	anti-tumor response [2]	mean number of CD-31 positive vessels per square millimeter ([3]; BBG3-treated: 160±20) [per square millimeter]	reduction in total tumor plasma volume vs BBG3 ([3]; FITC-dextran plasma marker) [%]	mice with long-term complete remissions ([3]; MDA-MB-231 tumors) [%]	vessels with disintegration of vascular endothelium ([3]; histological examination)	reduction in tumor vascularity ([3]; mouse, in vivo)	reduction in microvascular density ([3]; treated vs. untreated mice) [%]	infected cells [4]	leukocyte binding and infiltration [5]	binding to PS ([6]; 10% mouse serum)	binding to PS ([6]; 10% rat and human serum)	binding to PS-coated microtiter plates ([6]; dilutions in 1% OVA, listed as 3G4 purified from SCM)	binding to PS-coated microtiter plates ([6]; dilutions in 1% OVA, listed as 3G4 purified from SFM)	binding to PS-coated microtiter plates ([6]; dilutions in 10% FBS)	binding to PS ([6]; hamster, ferret, guinea pig, rabbit and monkey serum)
Annexin V: High affinity PS binding ligand; natural ligand binding anionic phospholipids and PE	did not bind detectably	PI>PS=PE=PA=CL>PG	abolished	–	–	–	–	–	–	–	–	–	–	–	–	–	–	–
3G4: Mouse IgG3 kappa monoclonal antibody to PS and anionic phospholipids; binding mediated by β2-glycoprotein I (antibody, listed as Mus musculus) VH: MGWTWIFILILSVTTGVHSEVQLQQSGPELEKPGASVKLSCKASGYSFTGYNMNWVKQSHGKSLEWIGHIDPYYGDTSYNQKFRGKATLTVDKSSSTAYMQLKSLTSEDSAVYYCVKGGYYGHWYFDVWGAGTTVTVSSATTTAPSVYPLVP VL: MDMRAPAQILGFLLLLFPGTRCDIQMTQSPSSLSASLGERVSLTCRASQDIGSSLNWLQQGPDGTIKRLIYATSSLDSGVPKRFSGSRSGSDYSLTISSLESEDFVDYYCLQYVSSPPTFGAGTKLELKRADAAPTVFIFGRIP	–	–	–	tumor growth was slowed	50±15	60	30	about 50%	about 70%	70	about one in about a hundred cells	caused mononuclear leukocytes to bind to the tumor vascular endothelium and infiltrate into the tumor interstitium	did not bind PS	bound PS	binds PS weakly	no longer binds PS	binds to PS-coated microtiter plates	bound PS
